Reference: article PMC10056440 (2023)
No end group written: not given here.

Legend:
[1] = target: mKate2-Kv1.3 M1-D52 truncated (Homo sapiens, UniProt P22001); assay: competition with AgTx2-GFP, confocal, Neuro 2A cells
[2] = target: KcsA-Kv1.1 pore blocker binding site (Homo sapiens, UniProt Q09470); assay: competition with AgTx2-GFP, confocal, spheroplasts
[3] = target: KcsA-Kv1.6 pore blocker binding site (Homo sapiens, UniProt P17658); assay: competition with AgTx2-GFP, confocal, spheroplasts
[4] = target: KcsA-Kv1.3 pore blocker binding site (Homo sapiens, UniProt P22001); assay: competition with AgTx2-GFP, confocal, spheroplasts
KcsA-Kv1.3 pore blocker binding site, sequence (P22001 420-453): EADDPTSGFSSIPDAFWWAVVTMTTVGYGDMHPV

KcsA-Kv1.6 pore blocker binding site, sequence (P17658 398-431): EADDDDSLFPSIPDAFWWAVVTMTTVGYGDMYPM
KcsA-Kv1.1 pore blocker binding site, sequence (Q09470 348-381): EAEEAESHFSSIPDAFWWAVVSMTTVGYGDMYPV
mKate2-Kv1.3 M1-D52 truncated, sequence (P22001 53-575): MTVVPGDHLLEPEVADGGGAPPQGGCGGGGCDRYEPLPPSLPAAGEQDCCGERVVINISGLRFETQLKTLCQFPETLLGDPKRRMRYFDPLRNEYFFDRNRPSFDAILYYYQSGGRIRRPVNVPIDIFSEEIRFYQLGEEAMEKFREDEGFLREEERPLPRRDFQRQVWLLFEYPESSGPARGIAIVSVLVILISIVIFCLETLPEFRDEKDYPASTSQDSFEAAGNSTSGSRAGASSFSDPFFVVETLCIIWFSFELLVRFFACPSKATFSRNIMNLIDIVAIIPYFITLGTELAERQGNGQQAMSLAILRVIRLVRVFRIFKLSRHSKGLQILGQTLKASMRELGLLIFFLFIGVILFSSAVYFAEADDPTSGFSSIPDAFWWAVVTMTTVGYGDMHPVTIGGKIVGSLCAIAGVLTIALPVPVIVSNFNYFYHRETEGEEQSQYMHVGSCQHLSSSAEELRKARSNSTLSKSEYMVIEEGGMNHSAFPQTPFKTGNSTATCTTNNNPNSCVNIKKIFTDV

Binder GVPINVSCTGSPQCIKPCKDAGMRFGKCMNRKCHCTPK (ends and bridges not checked; cysteine pairing not given here) [AgTx2, listing 1 of 4 here] has a Ki [1] of 0.7 nM.

GVPINVSCTGSPQCIKPCKDAGMRFGKCMNRKCHCTPK (ends and bridges not checked; cysteine pairing not given here) [AgTx2, listing 2 of 4 here] showed a Ki [2] of 3.7 nM.

Binder GVPINVSCTGSPQCIKPCKDAGMRFGKCMNRKCHCTPK (ends and bridges not checked; cysteine pairing not given here) [AgTx2, listing 3 of 4 here] has a Ki [3] of 0.027 nM.

Binder GVEINVKCSGSPQCLKPCKDAGMRFGKCMNRKCHCTPK (ends and bridges not checked; cysteine pairing not given here) [KTx1, listing 1 of 3 here] has a Ki [2] of 3.8 nM.

For GVEINVKCSGSPQCLKPCKDAGMRFGKCMNRKCHCTPK (ends and bridges not checked; cysteine pairing not given here) [KTx1, listing 2 of 3 here], the Ki [3] was 0.016 nM.

In the case of GVEINVKCSGSPQCLKPCKDAGMRFGKCMNRKCHCTPK (ends and bridges not checked; cysteine pairing not given here) [KTx1, listing 3 of 3 here], the Ki [4] is reported as 0.032 nM.

For GVPINVSCTGSPQCIKPCKDAGMRFGKCMNRKCHCTPK (ends and bridges not checked; cysteine pairing not given here) [AgTx2, listing 4 of 4 here], the Ki [4] was 0.039 nM.
